Measurements reported in IntAct's records for PubMed 31515488.

B1: SH2 domain-containing protein 4A (Homo sapiens), Q9H788 (parent)
chain: MLKQILSEMYIDPDLLAELSEEQKQILFFKMREEQIRRWKEREAAMERKESLPVKPRPKKENGKSVHWKLGADKEVWVWVMGEHHLDKPYDVLCNEIIAERARLKAEQEAEEPRKTHSEEFTNSLKTKSQYHDLQAPDNQQTKDIWKKVAEKEELEQGSRPAPTLEEEKIRSLSSSSRNIQQMLADSINRMKAYAFHQKKESMKKKQDEEINQIEEERTKQICKSWKEDSEWQASLRKSKAADEKRRSLAKQAREDYKRLSLGAQKGRGGERLQSPLRVPQKPERPPLPPKPQFLNSGAYPQKPLRNQGVVRTLSSSAQEDIIRWFKEEQLPLRAGYQKTSDTIAPWFHGILTLKKANELLLSTGMPGSFLIRVSERIKGYALSYLSEDGCKHFLIDASADAYSFLGVDQLQHATLADLVEYHKEEPITSLGKELLLYPCGQQDQLPDYLELFE
partner: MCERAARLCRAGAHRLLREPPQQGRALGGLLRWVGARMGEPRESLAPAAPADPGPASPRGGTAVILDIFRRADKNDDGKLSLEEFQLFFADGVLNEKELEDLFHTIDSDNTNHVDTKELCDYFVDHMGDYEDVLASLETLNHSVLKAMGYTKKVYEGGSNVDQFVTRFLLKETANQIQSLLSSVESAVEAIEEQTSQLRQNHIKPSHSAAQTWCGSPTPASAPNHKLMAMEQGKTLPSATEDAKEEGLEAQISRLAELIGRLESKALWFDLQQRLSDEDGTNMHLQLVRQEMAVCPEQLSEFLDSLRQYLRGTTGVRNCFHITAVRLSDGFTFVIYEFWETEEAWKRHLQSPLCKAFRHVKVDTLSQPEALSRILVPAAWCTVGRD
B2: Pyridine nucleotide-disulfide oxidoreductase domain-containing protein 1 (Homo sapiens), Q8WU10 (parent)
chain: MEAARPPPTAGKFVVVGGGIAGVTCAEQLATHFPSEDILLVTASPVIKAVTNFKQISKILEEFDVEEQSSTMLGKRFPNIKVIESGVKQLKSEEHCIVTEDGNQHVYKKLCLCAGAKPKLICEGNPYVLGIRDTDSAQEFQKQLTKAKRIMIIGNGGIALELVYEIEGCEVIWAIKDKAIGNTFFDAGAAEFLTSKLIAEKSEAKIAHKRTRYTTEGRKKEARSKSKADNVGSALGPDWHEGLNLKGTKEFSHKIHLETMCEVKKIYLQDEFRILKKKSFTFPRDHKSVTADTEMWPVYVELTNEKIYGCDFIVSATGVTPNVEPFLHGNSFDLGEDGGLKVDDHMHTSLPDIYAAGDICTTSWQLSPVWQQMRLWTQARQMGWYAAKCMAAASSGDSIDMDFSFELFAHVTKFFNYKVVLLGKYNAQGLGSDHELMLRCTKGREYIKVVMQNGRMMGAVLIGETDLEETFENLILNQMNLSSYGEDLLDPNIDIEDYFD
partner: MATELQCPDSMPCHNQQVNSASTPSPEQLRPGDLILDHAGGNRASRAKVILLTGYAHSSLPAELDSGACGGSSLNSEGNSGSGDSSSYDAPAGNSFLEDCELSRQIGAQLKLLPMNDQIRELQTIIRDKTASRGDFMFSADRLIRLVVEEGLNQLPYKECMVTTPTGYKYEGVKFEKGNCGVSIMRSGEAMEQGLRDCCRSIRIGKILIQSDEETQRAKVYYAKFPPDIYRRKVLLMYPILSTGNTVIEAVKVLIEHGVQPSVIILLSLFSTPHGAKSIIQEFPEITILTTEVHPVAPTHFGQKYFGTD
B3: Protein phosphatase 1 regulatory inhibitor subunit 16B (Homo sapiens), Q96T49 (parent)
chain: MASHVDLLTELQLLEKVPTLERLRAAQKRRAQQLKKWAQYEQDLQHRKRKHERKRSTGGRRKKVSFEASVALLEASLRNDAEEVRYFLKNKVSPDLCNEDGLTALHQCCIDNFEEIVKLLLSHGANVNAKDNELWTPLHAAATCGHINLVKILVQYGADLLAVNSDGNMPYDLCEDEPTLDVIETCMAYQGITQEKINEMRVAPEQQMIADIHCMIAAGQDLDWIDAQGATLLHIAGANGYLRAAELLLDHGVRVDVKDWDGWEPLHAAAFWGQMQMAELLVSHGASLSARTSMDEMPIDLCEEEEFKVLLLELKHKHDVIMKSQLRHKSSLSRRTSSAGSRGKVVRRASLSDRTNLYRKEYEGEAILWQRSAAEDQRTSTYNGDIRETRTDQENKDPNPRLEKPVLLSEFPTKIPRGELDMPVENGLRAPVSAYQYALANGDVWKVHEVPDYSMAYGNPGVADATPPWSSYKEQSPQTLLELKRQRAAAKLLSHPFLSTHLGSSMARTGESSSEGKAPLIGGRTSPYSSNGTSVYYTVTSGDPPLLKFKAPIEEMEEKVHGCCRIS
partner: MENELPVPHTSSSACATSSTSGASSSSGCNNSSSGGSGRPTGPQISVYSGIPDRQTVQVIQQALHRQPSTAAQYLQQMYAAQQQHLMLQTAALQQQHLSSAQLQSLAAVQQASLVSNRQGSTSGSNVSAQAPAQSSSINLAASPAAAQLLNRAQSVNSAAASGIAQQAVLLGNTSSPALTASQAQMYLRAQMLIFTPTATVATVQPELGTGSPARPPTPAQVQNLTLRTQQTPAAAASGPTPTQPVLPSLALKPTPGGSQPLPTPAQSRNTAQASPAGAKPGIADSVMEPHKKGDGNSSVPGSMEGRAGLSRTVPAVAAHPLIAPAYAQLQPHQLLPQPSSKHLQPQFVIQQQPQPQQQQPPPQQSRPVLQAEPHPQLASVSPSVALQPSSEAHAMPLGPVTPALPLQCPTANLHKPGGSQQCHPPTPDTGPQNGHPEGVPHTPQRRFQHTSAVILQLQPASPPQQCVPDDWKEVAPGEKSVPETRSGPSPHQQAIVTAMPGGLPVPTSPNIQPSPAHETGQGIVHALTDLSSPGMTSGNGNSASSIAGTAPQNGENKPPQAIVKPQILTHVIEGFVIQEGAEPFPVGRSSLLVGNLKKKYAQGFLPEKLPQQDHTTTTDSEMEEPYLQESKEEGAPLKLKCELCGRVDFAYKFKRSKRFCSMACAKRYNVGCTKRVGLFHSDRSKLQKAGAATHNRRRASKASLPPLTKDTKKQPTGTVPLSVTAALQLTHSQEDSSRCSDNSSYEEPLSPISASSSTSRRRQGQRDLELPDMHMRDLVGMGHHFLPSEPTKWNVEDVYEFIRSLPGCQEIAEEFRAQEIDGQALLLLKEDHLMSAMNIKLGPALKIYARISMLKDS
B4: Ubiquitin-conjugating enzyme E2 E3 (Homo sapiens), Q969T4 (parent)
chain: MSSDRQRSDDESPSTSSGSSDADQRDPAAPEPEEQEERKPSATQQKKNTKLSSKTTAKLSTSAKRIQKELAEITLDPPPNCSAGPKGDNIYEWRSTILGPPGSVYEGGVFFLDITFSSDYPFKPPKVTFRTRIYHCNINSQGVICLDILKDNWSPALTISKVLLSICSLLTDCNPADPLVGSIATQYLTNRAEHDRIARQWTKRYAT
B5: Four and a half LIM domains protein 5 (Homo sapiens), Q5TD97 (parent)
chain: MTTAHFYCQYCTASLLGKKYVLKDDSPYCVTCYDRVFSNYCEECKKPIESDSKDLCYKDRHWHEGCFKCTKCNHSLVEKPFAAKDERLLCTECYSNECSSKCFHCKRTIMPGSRKMEFKGNYWHETCFVCENCRQPIGTKPLISKESGNYCVPCFEKEFAHYCNFCKKVITSGGITFCDQLWHKECFLCSGCRKDLCEEQFMSRDDYPFCVDCYNHLYANKCVACSKPISGLTGAKFICFQDSQWHSECFNCGKCSVSLVGKGFLTQNKEIFCQKCGSGMDTDI
partner: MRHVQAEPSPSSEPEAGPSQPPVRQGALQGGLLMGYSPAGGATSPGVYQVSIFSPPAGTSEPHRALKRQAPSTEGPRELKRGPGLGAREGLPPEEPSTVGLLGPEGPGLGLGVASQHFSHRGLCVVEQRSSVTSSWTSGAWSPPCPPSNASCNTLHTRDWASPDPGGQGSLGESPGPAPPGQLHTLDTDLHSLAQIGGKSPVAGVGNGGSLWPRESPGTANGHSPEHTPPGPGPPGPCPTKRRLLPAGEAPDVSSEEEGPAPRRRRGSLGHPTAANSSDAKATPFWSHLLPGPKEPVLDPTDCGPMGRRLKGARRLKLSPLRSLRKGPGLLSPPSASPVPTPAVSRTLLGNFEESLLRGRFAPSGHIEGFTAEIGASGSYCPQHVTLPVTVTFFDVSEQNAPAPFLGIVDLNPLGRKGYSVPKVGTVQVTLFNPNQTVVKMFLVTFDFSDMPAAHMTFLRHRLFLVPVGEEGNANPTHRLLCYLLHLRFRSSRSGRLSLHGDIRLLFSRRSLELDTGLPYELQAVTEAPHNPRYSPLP

Variants of: B1
Settings: with neca2_human NECAB2, Q7Z6G3

Row | Variant | effect of a mutation on the interaction
1 | K303R | with no effect

Variants of: B2
Settings: with upp_human UPRT

Row | Variant | effect of a mutation on the interaction
2 | R374K | with no effect

Variants of: B3
Settings: with phc2_human PHC2, Q8IXK0

Row | Variant | effect of a mutation on the interaction
3 | P519S | with no effect

Variants of: B4
Settings: with rnf5_human RNF5, Q99942
rnf5_human RNF5, Q99942, sequence (Q99942 whole entry): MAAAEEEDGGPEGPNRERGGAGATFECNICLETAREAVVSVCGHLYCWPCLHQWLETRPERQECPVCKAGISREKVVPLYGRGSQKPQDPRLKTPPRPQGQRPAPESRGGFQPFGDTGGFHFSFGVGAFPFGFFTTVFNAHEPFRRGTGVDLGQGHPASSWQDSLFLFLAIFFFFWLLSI

Row | Variant | effect of a mutation on the interaction
4 | S117T | with no effect

Variants of: B5
Settings: with atosb_human ATOSB

Row | Variant | effect of a mutation on the interaction
5 | D24Y | with no effect
